Measured values from PMC12075613.

Columns and labels:
[1] = target: T1, LIMYB (L10-[…] MYB DOMAIN-CONTAINING PROTEIN) (Arabidopsis thaliana, UniProt Q9FFJ8 1-449); assay: EMSA
T1 sequence: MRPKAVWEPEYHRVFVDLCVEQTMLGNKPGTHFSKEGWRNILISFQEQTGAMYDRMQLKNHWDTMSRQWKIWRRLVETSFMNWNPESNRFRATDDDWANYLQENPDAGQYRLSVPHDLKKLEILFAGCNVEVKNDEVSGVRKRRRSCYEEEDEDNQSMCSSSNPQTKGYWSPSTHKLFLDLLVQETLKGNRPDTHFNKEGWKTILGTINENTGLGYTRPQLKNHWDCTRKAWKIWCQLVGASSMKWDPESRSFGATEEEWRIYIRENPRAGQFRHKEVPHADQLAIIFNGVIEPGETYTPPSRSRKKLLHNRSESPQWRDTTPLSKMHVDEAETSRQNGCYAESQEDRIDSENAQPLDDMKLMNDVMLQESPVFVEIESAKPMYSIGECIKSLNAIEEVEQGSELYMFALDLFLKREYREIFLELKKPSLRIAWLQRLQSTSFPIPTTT

[2] = target: T1, LIMYB (L10-[…] MYB DOMAIN-CONTAINING …); assay: competition

B1: RPL18 promoter 26-bp CAAAAC fragment (dsDNA)
DNA 1: GATGGAGGAAGCAAAACATTGACCAT
DNA 2: ATGGTCAATGTTTTGCTTCCTCCATC
Question: Does B1 bind [1]?
Answer: Result: binds

B2: RPL18 26-bp mutant competitor (CAAAAC to ATCGTG) (dsDNA)
DNA 1: GATGGAGGAAGATCGTGATTGACCAT
DNA 2: ATGGTCAATCACGATCTTCCTCCATC
Question: Does B2 bind [2]?
Answer: Result: no binding
